Biological target: ^125I-labeled multiubiquitin chains
Experiment: GST fusion on glutathione agarose beads, ^125I-labeled multiubiquitin chains, gamma-counting

Multiubiquitin Chain Bound (%)	Multiubiquitin Chain Bound cpm	Substance
100%	5210 cpm	GST fused p62 ubiquitin binding region (GST.p62C259) (from UniProt O08623 363-439)
17%	877 cpm	GST fused p62 ubiquitin binding region mutant L394/L395 → A/A (from UniProt O08623 363-439)

Source: patent publication US20030235558A1
